Results on 15 molecules are retold here after patent US20190248902A1 (published 2019).

T1: Soluble ASGR-1 (human, UniProt P07306 62-291, biotinylated)
T1 construct: Soluble recombinant protein; also called recombinant, soluble ASGR-1 biotinylated protein
T1 sequence: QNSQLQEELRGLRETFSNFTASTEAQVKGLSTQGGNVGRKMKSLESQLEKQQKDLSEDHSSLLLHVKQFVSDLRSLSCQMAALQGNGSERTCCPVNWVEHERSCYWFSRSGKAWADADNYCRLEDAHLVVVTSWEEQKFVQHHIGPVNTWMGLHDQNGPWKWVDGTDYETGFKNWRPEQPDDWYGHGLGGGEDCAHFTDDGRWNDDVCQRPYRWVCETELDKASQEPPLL

T2: Rat ASGR-1 (rat, UniProt P02706 1-284)
T2 construct: Expressed on HEK 293 cells or as membrane prep on beads; cDNA GenBank NM_012503
T2 sequence: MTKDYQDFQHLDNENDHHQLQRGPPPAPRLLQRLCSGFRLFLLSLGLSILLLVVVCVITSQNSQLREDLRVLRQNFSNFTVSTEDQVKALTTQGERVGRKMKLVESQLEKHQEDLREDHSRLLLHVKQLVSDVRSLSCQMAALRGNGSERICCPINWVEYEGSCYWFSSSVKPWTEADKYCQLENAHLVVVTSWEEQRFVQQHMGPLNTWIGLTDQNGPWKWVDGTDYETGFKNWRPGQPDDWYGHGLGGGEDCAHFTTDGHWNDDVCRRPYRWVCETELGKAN

T3: Dog ASGR-1 (dog)
T3 construct: Expressed on HEK 293 cells or as membrane prep on beads; cDNA GenBank XM_546579
T3 chain: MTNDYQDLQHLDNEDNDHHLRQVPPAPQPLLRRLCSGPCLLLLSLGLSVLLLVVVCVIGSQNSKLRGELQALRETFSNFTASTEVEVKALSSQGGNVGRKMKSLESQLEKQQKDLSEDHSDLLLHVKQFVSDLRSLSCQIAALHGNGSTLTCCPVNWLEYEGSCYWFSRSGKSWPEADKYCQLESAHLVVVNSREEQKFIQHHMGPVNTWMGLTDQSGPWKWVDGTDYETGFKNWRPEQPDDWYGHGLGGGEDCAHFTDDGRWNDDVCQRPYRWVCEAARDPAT

B1: 194A4 (antibody, V domains shown)
VH: QVQLVQSGTEVKKPGASLKVSCKASGYTFTVYYLNWVRQAPGQGLEWMGWINPNSGGTNYAQKFQGRVTMTRDTSISTAYMELSRLRSDDTAVYYCARGYDILTGWGQGTLVTVSS
VL: EIVLTQSPGTLSLSPGERATLSCRASRGVSNIYLAWYQQKPGQAPRLLIYGASNRATGIPDRFSGSGSGTDFTLTISRLEPEDFAVYYCQHNDYSMFTFGPGTKVDIK
notes: Tested as hybridoma supernatant at normalized concentration
B2: 190F8 (antibody, V domains shown)
VH: QVQLVESGGGVVQPGRSLRLSCAASGFTFSTYGMHWVRQAPGKGLEWVAVIWYDGSNKNYADSVKGRFTISRDNSKNTLYLQMNSLRAEDTAVYYCARDQGVGYDGLDVWGQGTTVTVSS
VL: DIQMTQSPSSLSASVGDRVTITCRTSQGIGNYLAWFQQKPGKAPKSLLYKASSLQSGVPSKFSGSGSGTDFTLTISSLQPEDFATYYCQQYMTYPLTFGGGTKVEIK
notes: as for B1
B3: 197G3 (antibody, V domains shown)
VH: B2 VH with A23V, T31S, Y32H, Q100P, G101S, L107M
VL: DIQMTQSPSSLSASVGDRVTITCRASQGIGNHLAWFQQKPGKAPKSLIYAASSLQSGVPSKFSGSRSGTDFSLTISSLQPEDFATYYCQQYSNYPVTFGPGTKVDIK
notes: as for B1
B4: 194C1 (antibody, V domains shown)
VH: B2 VH with T31S, K58E, N59H, D99N, Q100R, D105Y
VL: B2 VL with T25A, G30S, L48I, K50A, Q89L, Q90H, M92L
notes: as for B1
B5: 191G1 (antibody, V domains shown)
VH: B2 VH with T31S, K58E, N59H, Q100R, D105Y
VL: B2 VL with T25A, G30S, L48I, K50A, Q90H, M92L
notes: as for B1
B6: 191G10 (antibody, V domains shown)
VH: B2 VH with T31S
VL: B2 VL with N31K, A51V
notes: as for B1
B7: 198G3 (antibody, V domains shown)
VH: B2 VH with R19K, S56T, Y80C
VL: B2 VL with T5A, N31K, S56G
notes: as for B1
B8: 194C10 (antibody, V domains shown)
VH: QVQLQQWGAGLLKPSETLSLTCAVSGGSFRYYYWSWIRQPPGKGLEWFGEINHSGSTNYNPSLKSRVTISIDTSKNQFSLKLRSVTAADTAVYYCARDYGAFDIWGQGTMVTVSS
VL: EIVLTQSPGTLSLSPGERATLSCRASPSVNSGYLAWYQQKPGQTPRLLIFGASSRATGIPDRFSASGSGADFTLTISRLEPEDFAVYFCQQYESSPWTFGQGTKVEIK
notes: as for B1
B9: 176H4 (antibody, V domains shown)
VH: QVQLVESGGGVVQPGRSLRLSCAASGFTFSSYGMHWVRQAPGKGLEWVAIIWYDGSYKYYADSVKGRFTISRDNSKNTLYLQMSSLRAEDTAVYYCARDAHDFWSGYFAYWGQGALVTVSS
VL: DIVMTQTPLSLSVTPGQPASISCKSSQSLLHGDGKTYLYWYLQKPGQPPQLLIYEVSNRFSGVPDRFSGSGSGTDFTLKISRVEAEDVGIYYCMQSIQIPWTFGQGTRVEIK
notes: as for B1
B10: 75G3 (antibody, V domains shown)
VH: QVQLQQWGAGLLKPSETLSLTCAVYGGSLSGSYWSWIRQPPGKGLEWIGEINLSGSTNYNPSLKSRVTISVDTSKSQFSLTLRSVTAADTAVYYCARDYGGLDYWGQGTLVTVSS
VL: EIVLTQSPGTLSLSPGERATLSCRARQNVDSSYLAWYQQKPGQAPRLLIYGASSRATGIPDRFSGSGSGTDFTLTISRLEPEDFAVFYCQQYERSPWTFGQGTKVEIK
notes: as for B1
B11: 202A3 (antibody, V domains shown)
VH: QVQLEQSGAEVKKPGASVKVSCKASGYTFTSYDINWVRQATGQGLEWLGWMNPKRGNTGYAQKFQGRVTMTRNTSISTAHMELSSLRSEDTAVYYCARGRYSREDYYYYYDMDVWGQGTTVTVSS
VL: DIQMSQSPSSLSASVGDRVTITCRASQGIRNDLGWYQQKPGKAPKRLICAASRLQSGVPSRFSGSGSGTEFTLTISSLQPEDFAIYYCLQHHDYPFTFGPGTKVDIK
notes: as for B1
B12: 54E9 (antibody, V domains shown)
VH: QVQLVQSGAEVKKPGASVKVSCKASGYTFNSYGISWVRLAPGQGLEWMGWISAYNGNTKNAQKLQGRVTMTTDTSTSTAYMELRSLRSDDTAVYYCARHDFWSGYYKGMDVWGQGTTVTVSS
VL: not shown
notes: as for B1
B13: 7E11 (antibody, V domains shown)
VH: QVQLVESGGGVVQPGRSLRLSCAASGFTFSSFGMHWVRQAPGKGLEWVAIIWHDGSNKYYADSVKGRFTISRDNSNNTLYLQMSSLRAEDTAVYYCARDLSMGGMDVWGQGTTVTVSS
VL: DIQMTQSPSSLSASVGDRVTIACRASQNIISYLNWYQQKPGKAPKFLIYTASSLQSGVPSRFSGSGSGTDFTLTISSLQPEDFAIYYCQQTYSTPLTFGGGTKVEIK
notes: as for B1
B14: 193E7 (antibody, V domains shown)
VH: QVQLQQWGAGLLKPSETLSLTCAVYGGSFSGYFWTWIRQPPGKGLEWIGEINHSGSTNYNPSLKSRVTISVDTSKNQFSLKLSSVTAADTAVYYCARDYGADYWGQGTLVAVSA
VL: DIQMTQSPSSLSASVGDRVTITCRASQGIRNDLGWYQQKPGKAPKRLIYSASSLQRGVPSRFSGSGSGTEFTLTISSLQPEDFATYYCLQHKRYPLTFGGGTKVEIK
notes: as for B1
B15: 218G4 (antibody, V domains shown)
VH: QVQLVESGGGVVQPGRSLRLSCAASGFTFSSYGLHWVRQAPGKGLEWVAVIWYDGSNKYYADSVKGRFTISRDNSKNTLYLQMNSLRVEDTAVYYCANWYYYYYGMDVWGQGTTVTVSS
VL: QSVLTQPPSVSAAPGQKVTISCSGSSSNIGNNYVSWYQQLPGTAPKLLLYDSNKRPSGIPARFSGSKSGTSATLGITGLQTGDEADYYCGTWDSSLNTVVFGGGTKLTVL
notes: as for B1

Where a chain is given by its changes, count along the chain named.

In the first test the target is T1, Soluble ASGR-1. As to the kind of experiment: limited antigen binding assay; biotinylated soluble ASGR-1 coated at 2.5 ng/mL on LumAvidin beads, FACS. Here is the method:
To assess antibody and antigen interaction strength (relative binding affinity), ASGR-1 specific, ligand competing antibody hybridoma supernatants were tested in a limiting antigen binding assay. Titrated amounts of recombinant, soluble ASGR-1 biotinylated protein was incubated with streptavidin-coated LumAvidin Beads® for 45 minutes in the dark at room temperature and washed twice. Beads were resuspeneded in FACS buffer containing Stabilguard® and 0.05% Sodium Azide. Antigen-bound beads were then incubated with normalized hybridoma supernatant sample or controls for 18 hours in the dark at room temperature, washed twice, incubated with Alexa Fluor® 488 IgG fragment-specific detection antibody for 15 minutes in the dark at room temperature, washed once and finally resuspended in FACS buffer. Samples were analyzed using an Intellicyt iQue™ Screener Platform. FACS buffer supplemented with 1 mM Calcium Chloride was used in all steps. […] In this assay method, the antibody binding signal correlates with antibody affinity. Antibody binding data for a representative antigen coating concentration that fell in the linear range of the instrument signal detection is shown in Table 7.2. The degree of antibody binding to the target (ASGR-1) correlates with the measured fluorescent intensity and thus allows a relative comparison of affinities across the panel.
B1: the “FACS Geomean” value worked out at 38900 FACS Geomean.
Turning to B2, the “FACS Geomean” value worked out at 13900 FACS Geomean.
Turning to B3, the “FACS Geomean” value came out at 17700 FACS Geomean.
Regarding B4, the “FACS Geomean” value is 16900 FACS Geomean.
For B5, the “FACS Geomean” value came out at 9550 FACS Geomean.
Turning to B6, the “FACS Geomean” value stood at 24200 FACS Geomean.
As for B7, the “FACS Geomean” value was 26000 FACS Geomean.
Still for that read-out and setting: the result for B8 reads 21900 FACS Geomean; that for B9, 29400 FACS Geomean.
For B10, the “FACS Geomean” value was determined as 35800 FACS Geomean.
The same measure, in the same setting: the result for B11 reads 2150 FACS Geomean; that for B12, 6490 FACS Geomean.
Same read-out and setting: next, B13: 4660 FACS Geomean.
For B14, the “FACS Geomean” value came out at 18300 FACS Geomean.
The same measure, in the same setting: the result for B15 reads 15100 FACS Geomean.

For another test, the target named is T2, Rat ASGR-1. Put plainly: FACS on transfected HEK 293 cells or membrane preps on beads; Y = signal at least 2x irrelevant IgG. The method in brief:
(§1)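 Antibodies at normalized concentrations bound 1 h at 4° C to HEK 293 cells expressing each antigen, then Alexa Fluor 647 anti-Fc plus 7-AAD 15 min at 4° C, flow cytometry; empty-vector cells as negative. Alternatively, species ASGR-1 membrane preps on streptavidin beads, antibody 1 h RT, Alexa Fluor 488 anti-Fc; FACS buffer with 1 mM CaCl2 throughout.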
On to B1, for which the binding result is “binds”.

The next test addresses T3, Dog ASGR-1. The description is as above. The gist of the method:
as §1
As to B1, the binding result is “binds”.
Take B2: the binding result was “binds”.
Regarding B3, the binding result is listed as “binds”.
On the same count and under the same terms, the result for B4 reads “binds”.
Same read-out and setting: the result for B5 reads “binds”; that for B6, “binds”.
The same measure, in the same setting: the result for B7 reads “binds”; that for B8, “binds”.
For the molecule B9, the binding result is listed as “binds”.
On the same count and under the same terms, next, B10: “binds”; B11: “binds”.
For B12, the binding result was “binds”.
On the same count and under the same terms, the result for B14 reads “binds”; that for B15, “binds”.

The target of a further test is T2, Rat ASGR-1. As to the kind of experiment: FACS on transfected HEK 293 cells or membrane preps on beads; binding = signal at least 2x irrelevant IgG. The method in brief: as §1
B2: the binding result is reported as “no binding”.
On to B3, for which the binding result is “no binding”.
Regarding B4, the binding result is “no binding”.
On the same count and under the same terms, the result for B5 reads “no binding”; that for B6, “no binding”; that for B7, “no binding”.
Regarding B8, the binding result is given as “no binding”.
Regarding B9, the binding result was “no binding”.
Turning to B10, the binding result was “no binding”.
The same measure, in the same setting: next, B11: “no binding”; B12: “no binding”; B13: “no binding”.
Still for that read-out and setting: next, B14: “no binding”; B15: “no binding”.

The target of a further test is T3, Dog ASGR-1. The description is as above. The method in brief: as §1
For B13, the binding result was “no binding”.
